This is an account of results in patent US8394929B2, “Nogo receptor-mediated blockade of axonal growth” (Yale University, priority 2000, dated 2013).

Experiment [1] deals with chick dorsal root ganglion neurons. Kind of experiment: Neurite outgrowth assay in chick DRG neurons. The class given is cell-based. The protocol:
(§1) For all experiments involving cell culture, the following methods were employed. The culture of embryonic chick E10 and E12 dorsal root ganglion explants and dissociated neurons utilized methods described for E7 dorsal root ganglion cultures (Takahashi et al., (1998) Nature Neurosci. 1, 487-493; Takahashi et al., (1999) Cell 99, 59-69; Goshima et al., (1995) Nature 376, 509-514; Jin & Strittmatter, (1997) J. Neurosci. […]). NGF-differentiated PC12 cells were cultured as described (Strittmatter et al., (1994) J. Neurosci. 14, 2327-2338). Embryonic spinal cord explants (rat E10 or chick E5) were cultured for 7-14 days in the presence of PDGF-AA to induce differentiation of some cells into mature oligodendrocytes (Vartanian et al., (1999) Proc. Natl. Acad. Sci. USA 96, 731-735). The procedure for growth cone collapse assays is identical to that for analysis of Sema3A-induced growth cone collapse (Takahashi et al., (1998) Nature Neurosci. 1, 487-493; Takahashi et al., (1999) Cell 99, 59-69; Goshima et al., (1995) Nature 376, 509-514; Jin & Strittmatter, (1997) J. Neurosci. 17, 6256-6263). The method for analysis of total neurite outgrowth has also been described (Goshima et al., (1995) Nature 376, 509-514; Jin & Strittmatter, (1997) J. Neurosci. 17, 6256-6263; Strittmatter et al., (1994) J. Neurosci. 14, 2327-2338). In outgrowth assays, proteins and peptides were added one hour after plating to minimize any effect on the total number of adherent cells. To test the effect of substrate-bound GST or GST-Nogo, the protein solutions were dried on poly-L-lysine coated glass, washed and then coated with laminin. For E12 cultures, the neuronal identity of cells was verified by staining with anti-neurofilament antibodies (2H3, Develomental Studies Hybridoma Bank) and neurites were traced by observation of rhodamine-phalloidin staining of F-actin in processes.
For neurite outgrowth assays, plastic chamber slides were coated with 100 μg ml^−1 poly-L-lysine, washed, and dried. 3 μl drops of PBS containing GST-Nogo-66 were spotted and dried. Slides were then rinsed and coated with 10 μg ml fs24^−1 laminin before addition of dissociated E12 chick DRGs. AP-fusion proteins were added at the time of cell plating. Cultures were grown for 5-7 h after which neurite outgrowth was assessed.

The test system of a further experiment is 3T3 fibroblasts. Kind of experiment: 3T3 fibroblast spreading. The class given is cell-based, mouse. The method, then:
(a) is a schematic diagram which summarizes features of the Nogo proteins utilized in this study. (b) is a photograph of NIH-3T3 fibroblasts cultured on surfaces coated with Amino-Nogo, GST-Nogo-66 or no protein and stained for filamentous actin (scale bar, 40 μm). (c) is a photograph of chick E12 dorsal root ganglions cultured on surfaces coated with Amino-Nogo, GST-Nogo-66 or no protein (substrate-bound) or with 100 nM Nogo protein (soluble) (scale bar, 40 μm). (d) is a photograph of a gel and an immunoblot where purified Amino-Nogo-Myc-His protein was subjected to SDS-PAGE and stained with Commassie Brilliant Blue (CBB) or immunoblotted with anti-Myc antibodies (Myc) (molecular weight markers of 200, 116, 97, 65 & 45 kDa are at left). (e) is a graph displaying experimental data where the percentage of 3T3 fibroblasts with an area greater than 1200 μm^2 (spread) was measured from experiments as in (b) on Nogo-coated surfaces (black) or with soluble 100 nM Nogo preparations (blue) (AM, Amino-Nogo; AM+Myc, Amino-Nogo preincubated with anti-Myc antibody; AM+Myc+Mo, AM+Myc preincubated with anti-mouse IgG antibody; Myc+Mo, anti-Myc antibody plus anti-murine IgG antibody). (f) is a graph displaying experimental data where the percentage of spread COS-7 cells was determined after culture on Nogo-coated surfaces or with soluble 100 nM Nogo preparations. (g) is a graph displaying experimental data where the effects of purified preparations of GST-Nogo-66 or Amino-Nogo on growth cone morphology was assessed in E12 dorsal root ganglion cultures at the indicated concentrations after thirty minutes. […] (h) is a graph displaying experimental data where the neurite outgrowth per cell in […] dorsal root ganglion cultures was quantitated from experiments as in (c) on Nogo-coated surfaces or with soluble 100 nM Nogo preparations. (i) is a graph displaying experimental data where the effects of Nogo preparations on neurite outgrowth in cerebellar granule neurons was measured.
Assays of Nogo-A function have included growth cone collapse, neurite outgrowth, and fibroblast spreading with substrate-bound and soluble protein preparations (Caroni & Schwab, (1988) J. Cell Biol. 106, 1281-1288; GrandPré et al., (2000) Nature 403, 439-444; Chen et al., (2000) Nature 403, 434-439; Prinjha et al., (2000) Nature 403, 483-484). […] Since NI250 preparations and full length Nogo-A are non-permissive for 3T3 spreading, it was necessary to consider whether different domains of Nogo might subserve this in vitro activity. To facilitate a comparison of different Nogo-A domains, the acidic amino terminal 1040 amino acid fragment (Amino-Nogo) was expressed as a Myc-his tagged protein in HEK293T cells (FIG. 1d). The Nogo protein is present in cytosolic fractions. […]

For experiment [2], the system named is chick E12 dorsal root ganglion growth cones. Kind of experiment: Growth cone collapse assay in chick dorsal root ganglion explants. The class given is cell-based. The settings on record: soluble form at 100 nM; chick E12 DRG. The protocol: as §1
The expression of recombinant Nogo in HEK293T cells allows a rigorous test of whether this protein has axon outgrowth inhibiting effects. Washed membrane fractions from vector- or hNogo-A-Myc-transfected HEK293T cells were added to chick E12 dorsal root ganglion explant cultures. Growth cone morphology was assessed after a thirty minute incubation at 37° C. by fixation and rhodamine-phalloidin staining.
Briefly, for growth cone collapse, DRG explants were plated on plastic chamber slides precoated with 100 μg ml^−1 poly-L-lysine and 10 μg ml^−1 laminin. Cultures were grown 14-16 h prior to treatment.

In a further experiment the test system is COS-7 cells. Kind of experiment: COS-7 cell spreading. The class given is cell-based. The protocol:
(§2) (a) is a schematic diagram which summarizes features of the Nogo proteins utilized in this study. (b) is a photograph of NIH-3T3 fibroblasts cultured on surfaces coated with Amino-Nogo, GST-Nogo-66 or no protein and stained for filamentous actin (scale bar, 40 μm). (c) is a photograph of chick E12 dorsal root ganglions cultured on surfaces coated with Amino-Nogo, GST-Nogo-66 or no protein (substrate-bound) or with 100 nM Nogo protein (soluble) (scale bar, 40 μm). […] (e) is a graph displaying experimental data where the percentage of 3T3 fibroblasts with an area greater than 1200 μm^2 (spread) was measured from experiments as in (b) on Nogo-coated surfaces (black) or with soluble 100 nM Nogo preparations (blue) (AM, Amino-Nogo; AM+Myc, Amino-Nogo preincubated with anti-Myc antibody; AM+Myc+Mo, AM+Myc preincubated with anti-mouse IgG antibody; Myc+Mo, anti-Myc antibody plus anti-murine IgG antibody). (f) is a graph displaying experimental data where the percentage of spread COS-7 cells was determined after culture on Nogo-coated surfaces or with soluble 100 nM Nogo preparations. (g) is a graph displaying experimental data where the effects of purified preparations of GST-Nogo-66 or Amino-Nogo on growth cone morphology was assessed in E12 dorsal root ganglion cultures at the indicated concentrations after thirty minutes. […]

The subject of experiment [3] is Mouse P4 cerebellar granule neurons. Kind of experiment: Cerebellar granule neuron axon outgrowth. The class given is cell-based. The method, then:
as §2

The mark [4] stands for this setting: substrate-bound / coated surfaces.
Setting [5] is: dimerized with anti-Myc antibody.

B1: Amino-Nogo: acidic amino terminal 1040 amino acid fragment of Nogo-A expressed as a Myc-his tagged protein in HEK293T cells (protein, UniProt Q9NQC3 1-1040, looked up, fragment)
chain: MEDLDQSPLVSSSDSPPRPQPAFKYQFVREPEDEEEEEEEEEEDEDEDLEELEVLERKPAAGLSAAPVPTAPAAGAPLMDFGNDFVPPAPRGPLPAAPPVAPERQPSWDPSPVSSTVPAPSPLSAAAVSPSKLPEDDEPPARPPPPPPASVSPQAEPVWTPPAPAPAAPPSTPAAPKRRGSSGSVDETLFALPAASEPVIRSSAENMDLKEQPGNTISAGQEDFPSVLLETAASLPSLSPLSAASFKEHEYLGNLSTVLPTEGTLQENVSEASKEVSEKAKTLLIDRDLTEFSELEYSEMGSSFSVSPKAESAVIVANPREEIIVKNKDEEEKLVSNNILHNQQELPTALTKLVKEDEVVSSEKAKDSFNEKRVAVEAPMREEYADFKPFERVWEVKDSKEDSDMLAAGGKIESNLESKVDKKCFADSLEQTNHEKDSESSNDDTSFPSTPEGIKDRSGAYITCAPFNPAATESIATNIFPLLGDPTSENKTDEKKIEEKKAQIVTEKNTSTKTSNPFLVAAQDSETDYVTTDNLTKVTEEVVANMPEGLTPDLVQEACESELNEVTGTKIAYETKMDLVQTSEVMQESLYPAAQLCPSFEESEATPSPVLPDIVMEAPLNSAVPSAGASVIQPSSSPLEASSVNYESIKHEPENPPPYEEAMSVSLKKVSGIKEEIKEPENINAALQETEAPYISIACDLIKETKLSAEPAPDFSDYSEMAKVEQPVPDHSELVEDSSPDSEPVDLFSDDSIPDVPQKQDETVMLVKESLTETSFESMIEYENKEKLSALPPEGGKPYLESFKLSLDNTKDTLLPDEVSTLSKKEKIPLQMEELSTAVYSNDDLFISKEAQIRETETFSDSSPIEIIDEFPTLISSKTDSFSKLAREYTDLEVSHKSEIANAPDGAGSLPCTELPHDLSLKNIQPKVEEKISFSDDFSKNGSATSKVLLLPPDVSALATQAEIESIVKPKVLVKEAEKKLPSDTEKEDRSPSAIFSAELSKTSVVDLLYWRDIKKTGVVFGASLFLLLSLTVFSIVSVT
modifications: Myc-His tag
notes: acidic amino terminal 1040 amino acid fragment of Nogo-A expressed as a Myc-his tagged protein in HEK293T cells
As for B1, the “dorsal root ganglion axon outgrowth (in words)” value in experiment [1] (Amino-Nogo with anti-Myc antibody, further aggregated by anti-Mouse IgG antibody) is recorded as “significantly reduces”. In addition, the results for the “neurite/axon outgrowth (in words)” value in experiment [1] (soluble protein or peptide added to culture) and in experiment [1] (setting [4]) were “does not significantly modulate” and “axonal outgrowth is reduced to low levels”, respectively. Also, the “3T3 spreading (in words)” value in the experiment with 3T3 fibroblasts (setting [5]) is “inhibits”. Further, the “non-neuronal cell spreading (in words)” value in the experiment with 3T3 fibroblasts (soluble, 100 nM) is recorded as “does not significantly modulate”; in the experiment on COS-7 cells (soluble, 100 nM) it was “does not significantly modulate”. The “3T3 fibroblast spreading (in words)” value with 3T3 fibroblasts (setting [4]) is reported as “fail to support 3T3 fibroblast spreading”. Moreover, in experiment [2], the “growth cone morphology (in words)” value was “does not significantly modulate”. Also, the “COS-7 spreading (in words)” value in the experiment with COS-7 cells (setting [5]) is listed as “inhibits”. Besides, the “cerebellar axon outgrowth (in words)” value in experiment [3] (setting [5]) is given as “tends to reduce cerebellar axon outgrowth”; in experiment [3] (further aggregated by anti-Mouse IgG antibody) it was “significantly reduces”.
